Source: article PMC7665024, “Anti-apoptotic BCL-2 regulation by changes in dynamics of its long unstructured loop” (Communications Biology, 2020)
“Also recorded” adds a separate entry of the source.

Columns and labels:
[1] = system: BAX; experiment: FRAP-GUV pore-forming activity of BAX, 70-kDa F-dextran;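 on FRAP pore-forming activity, average: unitless ratio D/D0 relative to diffusion coefficient after Triton X-100 disruption of GUVs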;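 on FRAP pore-forming activity: unitless ratio D/D0 relative to diffusion coefficient after Triton X-100 disruption of GUVs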; type: biochemical, mouse; set-up: FRAP pore-forming activity / FRAP pore-forming activity, average / p (FRAP-70k-p), Average: unit not given here; settings: for pore-forming activity / effect on BAX-induced membrane pores on GUV (in words): 10- and 70-kDa F-dextran, BAX 1 µM, BimBH3 2 µM, BCL-2 1 µM, ABT-199 30 µM, room temperature, Fig. 2c; for FRAP pore-forming activity, average / FRAP pore-forming activity: 70 kDa F-dextran; for FRAP pore-forming activity, average: mean of trials
Method: (§1) Briefly, GUVs were incubated with the proteins of interest over a period of time (Fig. 2c), followed by photobleaching within individual GUVs. A series of fluorescent images were collected over time after the photobleaching and then analyzed to yield the diffusion coefficients of Fluor molecules (including FITC-labeled 70-kDa, and Alexa-647-labeled 10-kDa probes) using the theoretical approach detailed in the “Methods” section. As Fluor molecules are homogeneously dispersed in the solution (outside and inside of GUVs) before the incubation with BAX and activators, it is reasonable to expect that the larger the induced pore area on the surface of a GUV, the greater the diffusion coefficient. Thus, the diffusion coefficient is directly related to the pore-forming activity of activated BAX. As the pore-forming activity is proportional to the concentration of BAX[18], we fixed the total amount of added BAX in all of the measurements below (see the “Methods” section).
(§2) Full-length BAX and variants were prepared as previously described[18],[22],[35]. Mouse BAX was cloned into pTYB1 vector (New England Biolabs, Inc.), resulting pTYB1-BAX construct. The pTYB1-BAX construct encoding a fusion protein of BAX with chitin-binding peptide was separated by a self-cleavable intein tag to obtain a full-length BAX. Wild-type BAX has two native cysteine residues at 62 and 126. Cysteine-free construct (C62S/C126S) was used to prepare single-cysteine BAX variants for conjugating fluorescence probes (e.g., BAX136C in Fig. 1d). Point mutations of recombinant BAX were generated using a QuikChange mutagenesis kit. Proteins were expressed in E. coli (ER2566) strain (New England Biolabs, Inc.) and purified without detergent. Bacterial cultures were grown at 37 °C in LB medium containing 0.1 g/L ampicillin to reach an OD600 of 1.0. BAX expression was induced by addition of 0.3 mM IPTG at 30 °C for 6−8 h. The cells were harvested by centrifugation and resuspended in ice-cold lysis buffer (20 mM Tris–HCl, pH 7.0, 500 mM NaCl and 1 mM PMSF). The resuspended pellet was sonicated on ice for 30 min, followed by centrifugation at 12,800 × g for 50 min. […] The resins were incubated in a pre-equilibrated buffer (20 mM sodium phosphate, pH 8.0, 100 mM NaCl, 60 mM dithiothreitol (DTT)) for 48 h. Proteins were eluted from column and further purified by a SEC using a HiLoad 16/60 Superdex 75 column (GE Healthcare) pre-equilibrated in PB buffer (20 mM sodium phosphate, pH 7.4, 100 mM NaCl). Purified proteins were confirmed by SDS–PAGE with Coomassie blue staining. Protein concentration was determined using absorption spectroscopy at 280 nm.
(§3) All lipids used were purchased from Avanti Polar Lipids. […] Texas Red 1,2-dihexadecanoyl-sn-glycero-3-phosphoethanolamine (TR-DPPE) (Invitrogen) of 0.05% was added to the lipid mixture for virtualization of GUV[18],[26],[27]. GUVs were prepared with the gel-assisted swelling on a polyvinyl alcohol (PVA) gel[39]. A 5% (w/w) solution of PVA (MW 145,000) was prepared by stirring PVA in ddH2O while heating at 90 °C. PVA solution was spread on a microscope coverslip (18 × 18 mm, Matsunami, Japan) and then dried at 50 °C. Lipid mixture (1 mg/mL) dissolved in chloroform were spread on the dry PVA film and placed under vacuum for 30 min to evaporate the solvent. Lipids were rehydrated for 1 h in PB buffer. The resulting GUVs were transferred to an Eppendorf tube using blunt tips.
(§4) FRAP measurements were performed as described previously. […] All reactions were at room temperature and the final volume was 200 μL.

[2] = system: BAX; experiment: FRAP-GUV pore-forming activity of BAX, 10-kDa F-dextran; type: biochemical, mouse; set-up: unit not given here
Method: as §1, §2, §3, §4

[3] = 10 kDa F-dextran, mean of trials

BAX: full-length mouse BAX; in FRET the single-cysteine variant BAX136C labeled with AL488 [reference compound]
pore-forming activity / effect on BAX-induced membrane pores on GUV (in words) [1]: neither BAX nor EEE, in the absence of pro-apoptotic BimBH3, is able to induce large membrane pores on GUV | FRAP pore-forming activity, average [1]: 0.004165 | FRAP pore-forming activity ([1]; trial1): 0.0008251 | FRAP pore-forming activity ([1]; trial2): 0.006931 | FRAP pore-forming activity ([1]; trial3): 0.002475 | FRAP pore-forming activity ([1]; trial4): 0.000495 | FRAP pore-forming activity ([1]; trial5): 0.00132 | FRAP pore-forming activity ([1]; trial6): 0.001155 | FRAP pore-forming activity ([1]; trial7): 0.003135 | FRAP pore-forming activity ([1]; trial8): 0.001155 | FRAP pore-forming activity ([1]; trial9): 0.000495 | FRAP pore-forming activity ([1]; trial10): 0.0008251 | FRAP pore-forming activity ([1]; trial11): 0.00264 | FRAP pore-forming activity ([1]; trial12): 0.00231 | FRAP pore-forming activity ([1]; trial13): 0.002145 | FRAP pore-forming activity ([1]; trial14): 0.005776 | FRAP pore-forming activity ([1]; trial15): 0.000165 | FRAP pore-forming activity ([1]; trial16): 0.000495 | FRAP pore-forming activity ([1]; trial17): 0.01485 | FRAP pore-forming activity ([1]; trial18): 0.0132 | FRAP pore-forming activity ([1]; trial19): 0.01155 | FRAP pore-forming activity ([1]; trial20): 0.002805 | FRAP pore-forming activity ([1]; trial21): 0.01271 | p (FRAP-70k-p), Average ([1]; 70 kDa, Average of replicates (Count: BAX 21; BAX + BimBH3 16; BAX + BimBH3 + EEE 19; + EEE-PB 8; + EEE+ABT-199 5)): 0.004165 | FRAP pore-forming activity, average [2, 3]: 0.009408 | FRAP pore-forming activity ([2]; 10 kDa F-dextran, trial1): 0.008947 | FRAP pore-forming activity ([2]; 10 kDa F-dextran, trial2): 0.02404 | FRAP pore-forming activity ([2]; 10 kDa F-dextran, trial3): 0.006842 | FRAP pore-forming activity ([2]; 10 kDa F-dextran, trial4): 0.00807 | FRAP pore-forming activity ([2]; 10 kDa F-dextran, trial5): 0.01263 | FRAP pore-forming activity ([2]; 10 kDa F-dextran, trial6): 0.01719 | FRAP pore-forming activity ([2]; 10 kDa F-dextran, trial7): 0.004737 | FRAP pore-forming activity ([2]; 10 kDa F-dextran, trial8): 0.002982 | FRAP pore-forming activity ([2]; 10 kDa F-dextran, trial9): 0.002807 | FRAP pore-forming activity ([2]; 10 kDa F-dextran, trial10): 0.02035 | FRAP pore-forming activity ([2]; 10 kDa F-dextran, trial11): 0.007719 | FRAP pore-forming activity ([2]; 10 kDa F-dextran, trial12): 0.003684 | FRAP pore-forming activity ([2]; 10 kDa F-dextran, trial13): 0.01684 | FRAP pore-forming activity ([2]; 10 kDa F-dextran, trial14): 0.0007018 | FRAP pore-forming activity ([2]; 10 kDa F-dextran, trial15): 0.003509 | FRAP pore-forming activity ([2]; 10 kDa F-dextran, trial16): 0.009474 | FRAP pore-forming activity, average ([2]; 10 kDa, Average of replicates (Count: BAX 16; BAX + BimBH3 19; BAX + BimBH3 + EEE 22; + EEE-PB 4; + EEE+ABT-199 5)): 0.009408

B1: EEE (protein)
chain: MAHAGRTGYDNREIVMKYIHYKLSQRGYEWDAGDVGAAPPGAAPAPGIFSSQPGHTPHPAASRDPVAREEPLQTPAAPGAAAGPALEPVPPVVHLTLRQAGDDFSRRYRRDFAEMSSQLHLTPFTARGRFATVVEELFRDGVNWGRIVAFFEFGGVMCVESVNREMSPLVDNIALWMTEYLNRHLHTWIQDNGGWDAFVELYGPSMRPLFDFSWLSL
modifications: Pacific Blue (maleimide) on the native cysteine 158; left off: His6, C-terminal, state not stated
pore-forming activity / effect on BAX-induced membrane pores on GUV (in words) [1]: neither BAX nor EEE, in the absence of pro-apoptotic BimBH3, is able to induce large membrane pores on GUV; also recorded: the pore-forming ability of BAX is clearly inhibited by the presence of EEE | FRAP pore-forming activity, average [1]: 0.0009376 | FRAP pore-forming activity ([1]; trial1): 0.000495 | FRAP pore-forming activity ([1]; trial2): 0.0006601 | FRAP pore-forming activity ([1]; trial3): 0.000495 | FRAP pore-forming activity ([1]; trial4): 0.0009901 | FRAP pore-forming activity ([1]; trial5): 0.0008251 | FRAP pore-forming activity ([1]; trial6): 0.000495 | FRAP pore-forming activity ([1]; trial7): 0.0008251 | FRAP pore-forming activity ([1]; trial8): 0.000495 | FRAP pore-forming activity ([1]; trial9): 0.00132 | FRAP pore-forming activity ([1]; trial10): 0.0008251 | FRAP pore-forming activity ([1]; trial11): 0.0008251 | FRAP pore-forming activity ([1]; trial12): 0.0008251 | FRAP pore-forming activity ([1]; trial13): 0.001155 | FRAP pore-forming activity ([1]; trial14): 0.0009901 | FRAP pore-forming activity ([1]; trial15): 0.002475 | FRAP pore-forming activity ([1]; trial16): 0.000495 | FRAP pore-forming activity ([1]; trial17): 0.0006601 | FRAP pore-forming activity ([1]; trial18): 0.000495 | FRAP pore-forming activity ([1]; trial19): 0.002475 | FRAP pore-forming activity ([1]; trial20): 0.0008251 | FRAP pore-forming activity ([1]; trial21): 0.0006601 | FRAP pore-forming activity ([1]; trial22): 0.00132 | FRAP pore-forming activity, average [2, 3]: 0.001715 | FRAP pore-forming activity ([2]; 10 kDa F-dextran, trial1): 0.003333 | FRAP pore-forming activity ([2]; 10 kDa F-dextran, trial2): 0.0005263 | FRAP pore-forming activity ([2]; 10 kDa F-dextran, trial3): 0.001579 | FRAP pore-forming activity ([2]; 10 kDa F-dextran, trial4): 0.002807 | FRAP pore-forming activity ([2]; 10 kDa F-dextran, trial5): 0.002982 | FRAP pore-forming activity ([2]; 10 kDa F-dextran, trial6): 0.001754 | FRAP pore-forming activity ([2]; 10 kDa F-dextran, trial7): 0.0005263 | FRAP pore-forming activity ([2]; 10 kDa F-dextran, trial8): 0.002807 | FRAP pore-forming activity ([2]; 10 kDa F-dextran, trial9): 0.0005263 | FRAP pore-forming activity ([2]; 10 kDa F-dextran, trial10): 0.0005263 | FRAP pore-forming activity ([2]; 10 kDa F-dextran, trial11): 0.0005263 | FRAP pore-forming activity ([2]; 10 kDa F-dextran, trial12): 0.001053 | FRAP pore-forming activity ([2]; 10 kDa F-dextran, trial13): 0.0005263 | FRAP pore-forming activity ([2]; 10 kDa F-dextran, trial14): 0.002632 | FRAP pore-forming activity ([2]; 10 kDa F-dextran, trial15): 0.001053 | FRAP pore-forming activity ([2]; 10 kDa F-dextran, trial16): 0.002632 | FRAP pore-forming activity ([2]; 10 kDa F-dextran, trial17): 0.001404 | FRAP pore-forming activity ([2]; 10 kDa F-dextran, trial18): 0.003684
